# B1: Proline-serine-threonine phosphatase-interacting protein 1 (Homo sapiens), O43586 (parent)
# chain: MMPQLQFKDAFWCRDFTAHTGYEVLLQRLLDGRKMCKDMEELLRQRAQAEERYGKELVQIARKAGGQTEINSLRASFDSLKQQMENVGSSHIQLALTLREELRSLEEFRERQKEQRKKYEAVMDRVQKSKLSLYKKAMESKKTYEQKCRDADDAEQAFERISANGHQKQVEKSQNKARQCKDSATEAERVYRQSIAQLEKVRAEWEQEHRTTCEAFQLQEFDRLTILRNALWVHSNQLSMQCVKDDELYEEVRLTLEGCSIDADIDSFIQAKSTGTEPPAPVPYQNYYDREVTPLTSSPGIQPSCGMIKRFSGLLHGSPKTTSLAASAASTETLTPTPERNEGVYTAIAVQEIQGNPASPAQEYRALYDYTAQNPDELDLSAGDILEVILEGEDGWWTVERNGQRGFVPGSYLEKL
# partner: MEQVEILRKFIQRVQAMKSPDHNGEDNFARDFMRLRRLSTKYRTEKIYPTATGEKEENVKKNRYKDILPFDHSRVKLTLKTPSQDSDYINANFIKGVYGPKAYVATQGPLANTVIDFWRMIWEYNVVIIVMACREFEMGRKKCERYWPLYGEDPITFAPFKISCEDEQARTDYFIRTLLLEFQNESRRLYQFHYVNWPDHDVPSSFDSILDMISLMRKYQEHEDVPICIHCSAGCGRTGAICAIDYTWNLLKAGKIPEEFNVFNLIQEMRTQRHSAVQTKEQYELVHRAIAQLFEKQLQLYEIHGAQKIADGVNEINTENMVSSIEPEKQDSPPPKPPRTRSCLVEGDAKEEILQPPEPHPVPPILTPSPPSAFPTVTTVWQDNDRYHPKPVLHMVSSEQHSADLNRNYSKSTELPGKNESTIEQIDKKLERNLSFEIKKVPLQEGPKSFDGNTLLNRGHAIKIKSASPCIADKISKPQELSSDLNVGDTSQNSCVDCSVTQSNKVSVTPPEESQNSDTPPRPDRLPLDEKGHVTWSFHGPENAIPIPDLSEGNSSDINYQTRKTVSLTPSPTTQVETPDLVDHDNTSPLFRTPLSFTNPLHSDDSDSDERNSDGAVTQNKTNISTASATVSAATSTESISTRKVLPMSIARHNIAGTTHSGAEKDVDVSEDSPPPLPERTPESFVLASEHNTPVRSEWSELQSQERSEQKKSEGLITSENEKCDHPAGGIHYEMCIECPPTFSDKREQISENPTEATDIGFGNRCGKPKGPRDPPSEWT
# Variants of: B1
# Settings: with ptn12_human PTPN12, Q05209
row,effect of a mutation on the interaction,Variant
1,decreasing interaction,E250Q
2,decreasing interaction,A230T

# From IntAct's records for PubMed 11971877
